Experimental data as given in publication PMC7786285 (Frontiers in Immunology, 2020).

Molecular target: T1, EGFR-ECD-Fc chimera (Homo sapiens, UniProt P00533)
T1 construct: extracellular domain of the epidermal growth factor receptor, as Fc chimera; No catalogue number printed; detected through its Fc with a goat anti-human IgG Fc PE antibody; also called EGFR-Fc chimera; EGFR-Fc; source: bought: R&D
Experiment: flow cytometry on cells; yeast cells displaying chimeric Fabs stained with EGFR-ECD-Fc chimera (100, 10 and 1 nM; sorting 250 nM down to 1 nM), detected with goat anti-human IgG Fc PE
Conditions: one partner purified

B1: FEB4 VH paired with the VL of H1, Fab displayed on yeast (Fab, V domains shown)
VH: AVTLDESGGGLQTPGGALSLVCKASGFTFSSHGMLWVRQAPGKGLEFVAGISTDGSSTSYGAPVKGRATISRDNGQSTVRLQLNNLRAEDTGTYYCAKDAYRCRNCAEDIDAWGHGTEVIVSS
VL: ALTQPSSVSANPGETVKITCSGGYSYYGWIQQKSPGSAPVTLIYNNDNRPSGIPSRFSGSTSGSTSTLTITGVQAEDEAVYYCGSYDGSAGIFGAGTTLTVL
  binding result: binds

B2: FEB4 VH paired with the VL of H3, Fab displayed on yeast (Fab, V domains shown)
VH: AVTLDESGGGLQTPGGALSLVCKASGFTFSSHGMLWVRQAPGKGLEFVAGISTDGSSTSYGAPVKGRATISRDNGQSTVRLQLNNLRAEDTGTYYCAKDAYRCRNCAEDIDAWGHGTEVIVSS
VL: ALTQPSSVSANPGETVEITCSGGGSNSYYGWYQQKAPGSAPVTVIYDNTNRPSNIPSRFSGSLSDSTNTLTITGVQADDEAVYFCGNEDNTDSYVGIFGAGTTLTVL
  binding result: binds
